In patent US20190255165A1 (AMAL THERAPEUTICS, published 2019):

B1: EDAZ13Mad5 (other)
chain: MHHHHHHNIDRPKGLAFTDVDVDSIKIAWESPQGQVSRYRVTYSSPEDGIRELFPAPDGEDDTAELQGLRPGSEYTVSVVALHDDMESQPLIGIQSTKRYKNRVASRKSRAKFKQLLQHYREVAAAKSSENDRLRLLLKESLKISQAVHAAHAEINEAGREVVGVGALKVPRNQDWLGVPRFAKFASFEAQGALANIAVDKANLDVEQLESIINFEKLTEWTGS
notes: Recombinant fusion protein with N-terminal MHHHHHH; 25,057 Da; also called fusion protein of TLR4 peptide agonist EDA (N-terminal), Z13 and MAD5 cargo
B2: AnaxaZ13Mad5 (other)
chain: MHHHHHHSTVHEILCKLSLEGDHSTPPSAYGSVKPYTNFDAEKRYKNRVASRKSRAKFKQLLQHYREVAAAKSSENDRLRLLLKESLKISQAVHAAHAEINEAGREVVGVGALKVPRNQDWLGVPRFAKFASFEAQGALANIAVDKANLDVEQLESIINFEKLTEWTGS
notes: Recombinant fusion protein with N-terminal MHHHHHH; 18973 Da; also called AnaxZ13Mad5; fusion protein with Anaxa at the N-terminal position, Z13 and MAD5 cargo
B3: Z13Mad5Anaxa (other)
chain: MHHHHHHKRYKNRVASRKSRAKFKQLLQHYREVAAAKSSENDRLRLLLKESLKISQAVHAAHAEINEAGREVVGVGALKVPRNQDWLGVPRFAKFASFEAQGALANIAVDKANLDVEQLESIINFEKLTEWTGSSTVHEILCKLSLEGDHSTPPSAYGSVKPYTNFDAE
notes: Recombinant fusion protein with N-terminal MHHHHHH; 18973 Da; also called fusion protein of cell-penetrating peptide Z13, MAD5 cargo and TLR peptide agonist Anaxa (C-terminal)

How the values were obtained:
[1] = biological target: T1, human TLR4 (human, UniProt O00206 24-839); test: inferred from IL-8 secretion (ELISA) of HEK-hTLR4 cells, 1 µM
T1 construct: whole, on cells; Presented on HEK-hTLR4 cells; also called hTLR4

[2] = biological target: T2, human TLR2 (human, UniProt O60603 21-784); test: inferred from HEK-Blue hTLR2 reporter cells (QuantiBlue OD and IL-8 ELISA)
T2 construct: whole, on cells; Presented on HEK-Blue hTLR2 reporter cells; also called hTLR2
T2 sequence (O60603 21-784): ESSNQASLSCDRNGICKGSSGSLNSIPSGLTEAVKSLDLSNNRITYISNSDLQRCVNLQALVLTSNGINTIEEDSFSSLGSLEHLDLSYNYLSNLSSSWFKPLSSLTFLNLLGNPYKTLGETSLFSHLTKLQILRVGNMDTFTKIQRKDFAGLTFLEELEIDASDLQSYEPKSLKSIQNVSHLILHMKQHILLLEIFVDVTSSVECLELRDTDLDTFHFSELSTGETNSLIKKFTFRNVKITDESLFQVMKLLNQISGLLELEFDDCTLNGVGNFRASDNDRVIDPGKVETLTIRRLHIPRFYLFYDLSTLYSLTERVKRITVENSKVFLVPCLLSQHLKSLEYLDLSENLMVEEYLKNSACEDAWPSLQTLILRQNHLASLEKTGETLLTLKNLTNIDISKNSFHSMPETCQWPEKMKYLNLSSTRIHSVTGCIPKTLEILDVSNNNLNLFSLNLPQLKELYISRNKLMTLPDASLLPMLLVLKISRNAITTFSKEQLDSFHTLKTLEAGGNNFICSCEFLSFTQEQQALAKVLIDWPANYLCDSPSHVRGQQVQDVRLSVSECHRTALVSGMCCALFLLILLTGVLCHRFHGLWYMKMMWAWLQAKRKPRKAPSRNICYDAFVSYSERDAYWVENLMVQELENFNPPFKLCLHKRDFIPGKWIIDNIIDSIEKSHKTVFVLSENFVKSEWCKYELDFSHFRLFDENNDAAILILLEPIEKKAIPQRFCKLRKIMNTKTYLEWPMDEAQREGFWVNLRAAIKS

T1 sequence (O00206 24-839): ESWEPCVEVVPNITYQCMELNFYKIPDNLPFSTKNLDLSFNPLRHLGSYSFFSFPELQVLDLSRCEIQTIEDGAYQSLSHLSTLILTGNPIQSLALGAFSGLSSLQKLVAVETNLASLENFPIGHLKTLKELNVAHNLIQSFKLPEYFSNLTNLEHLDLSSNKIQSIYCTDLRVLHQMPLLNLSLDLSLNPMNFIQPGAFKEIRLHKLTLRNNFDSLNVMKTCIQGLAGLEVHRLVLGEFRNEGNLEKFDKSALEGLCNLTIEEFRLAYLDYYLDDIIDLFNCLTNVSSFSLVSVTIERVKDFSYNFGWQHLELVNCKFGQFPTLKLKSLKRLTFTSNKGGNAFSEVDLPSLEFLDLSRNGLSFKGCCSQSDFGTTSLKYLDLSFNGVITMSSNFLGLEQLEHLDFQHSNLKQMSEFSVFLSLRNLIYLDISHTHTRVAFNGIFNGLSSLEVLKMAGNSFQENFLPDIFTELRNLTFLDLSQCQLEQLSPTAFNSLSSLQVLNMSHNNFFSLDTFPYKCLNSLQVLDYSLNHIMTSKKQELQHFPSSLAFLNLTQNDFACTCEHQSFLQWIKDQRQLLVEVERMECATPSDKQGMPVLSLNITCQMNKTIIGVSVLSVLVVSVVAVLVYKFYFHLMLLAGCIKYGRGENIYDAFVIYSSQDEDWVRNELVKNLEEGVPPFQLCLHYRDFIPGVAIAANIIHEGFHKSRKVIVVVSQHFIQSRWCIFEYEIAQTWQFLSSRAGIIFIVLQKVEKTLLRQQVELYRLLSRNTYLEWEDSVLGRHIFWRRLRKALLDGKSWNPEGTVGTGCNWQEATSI

Binder | binding result [1] | binding result [2]
B1 | binds | 
B2 |  | binds
B3 | binds | binds
